Experimental data from paper PMC12489471, “A multi-dentate, cooperative interaction between endo- and exo-ribonucleases within the bacterial RNA degradosome” (Nucleic Acids Research, 2025).

Key:
PNPase core = test: Cryo-EM of E. coli PNPase core:RNase E complex; type: binding; settings: 20 mM Tris–HCl pH 8.0, 25 mM MgCl2, 150 mM KCl, 1 mM TCEP
Procedure: The PNPase core encoding sequence from E. coli (aa 1–552), Salmonella enterica serovar Typhimurium (UniProt: Q8ZLT3) (aa 1–552), or Pseudomonas aeruginosa (strain PAO1, UniProt: Q9HV59) (aa 1–553) was amplified using corresponding genomic DNA as a template and cloned into pExp-Mxe-CHis expression vector. The protein of interest, produced as a fusion with C-terminal 8×His-tagged Mycobacterium xenopi GyrA intein, was expressed in Evo21(DE3) cells at 18°C overnight following induction with 0.4 mM IPTG. […] After cleavage, the protein buffer was exchanged using HiPrep 26/10 desalting column (Cytiva), and the protein solution was reapplied to Ni-NTA resin to remove His-tagged intein and uncleaved material. […]
Purified PNPase core and RNE-muGFP-CHis proteins were mixed in 1:2 ratio and their complex were separated on the Superdex 200 Increase 10/300 GL column (Cytiva) equilibrated with cryo-EM Buffer (20 mM Tris–HCl, pH 8.0, 25 mM MgCl2, 150 mM KCl, 1 mM TCEP). […] The samples were mixed with CHAPSO (3-([3-cholamidopropyl]dimethylammonio)-2-hydroxy-1-propanesulfonate) at a final concentration of 8 mM before being applied onto R2/2 Au Ultrafoil grids (Quantifoil) that had been pre-treated by glow-discharge (PELCO easiGLOW: 60 s, 25 mA, 0.39 mBar). […]

full-length PNPase = test: Cryo-EM of full-length PNPase:RNase E 960–1061; type: binding, E. coli

B1: RNase E 960 – 1061 wildtype: wildtype RNase E peptide 960–1061 (peptide)
chain: VVETAEVVVAEPEVVAQPAAPVVAEVAAEVETVAAVEPEVTVEHNHATAPMTRAPAPEYVPEAPRHSDWQRPTFAFEGKGAAGGHTATHHASAAPARPQPVE
modifications: left off: His6, N-terminal, cleaved | MBP, N-terminal, cleaved | intein, C-terminal, cleaved | choline-binding domain, C-terminal, cleaved
binding mode / stoichiometry with E. coli PNPase core (PNPase core): interacting with two protomers of the trimeric PNPase core
location of extra density / binding on PNPase (full-length PNPase; cryo-EM, PNPase:RNase E 960–1061): bridging two b-strands
interaction with KH and S1 domains of PNPase (full-length PNPase; preliminary cryo-EM map, full-length PNPase): does not interact with the KH and S1 domains of PNPase
